In publication PMC9669019, “Molecular basis for integrin adhesion receptor binding to p21-activated kinase 4 (PAK4)” (Communications Biology, 2022):
Positions count from the first letter of the chain named. In names and notes the source's numbering stands.

B1: D444A: GFP-tagged PAK4 D444A mutant; catalytic domain (Fig 4G) or full-length (Fig 4H) (protein, UniProt O96013 1-591, looked up, variant D444A)
Serine/threonine-protein …: MFGKRKKRVEISAPSNFEHRVHTGFDQHEQKFTGLPRQWQSLIEESARRPKPLVDPACITSIQPGAPKTIVRGSKGAKDGALTLLLDEFENMSVTRSNSLRRDSPPPPARARQENGMPEEPATTARGGPGKAGSRGRFAGHSEAGGGSGDRRRAGPEKRPKSSREGSGGPQESSRDKRPLSGPDVGTPQPAGLASGAKLAAGRPFNTYPRADTDHPSRGAQGEPHDVAPNGPSAGGLAIPQSSSSSSRPPTRARGAPSPGVLGPHASEPQLAPPACTPAAPAVPGPPGPRSPQREPQRVSHEQFRAALQLVVDPGDPRSYLDNFIKIGEGSTGIVCIATVRSSGKLVAVKKMDLRKQQRRELLFNEVVIMRDYQHENVVEMYNSYLVGDELWVVMEFLEGGALTDIVTHTRMNEEQIAAVCLAVLQALSVLHAQGVIHRDIKSASILLTHDGRVKLSDFGFCAQVSKEVPRRKSLVGTPYWMAPELISRLPYGPEVDIWSLGIMVIEMVDGEPPYFNEPPLKAMKMIRDNLPPRLKNLHKVSPSLKGFLDRLLVRDPAQRATAAELLKHPFLAKAGPPASIVPLMRQNRTR
modifications: GFP tag; catalytic domain or full-length
B2: E512R: GFP-tagged PAK4 E512R mutant; catalytic domain (Fig 4G) or full-length (Fig 4H) (protein, UniProt O96013 1-591, looked up, variant E512R)
Serine/threonine-protein …: B1 Serine/threonine-protein … with A444D, E512R
modifications: GFP tag
B3: E512A: GFP-tagged PAK4 E512A mutant; catalytic domain (Fig 4G) or full-length (Fig 4H) (protein, UniProt O96013 1-591, looked up, variant E512A)
Serine/threonine-protein …: B1 Serine/threonine-protein … with A444D, E512A
modifications: GFP tag; catalytic domain or full-length
B4: M482K: GFP-tagged PAK4 M482K mutant; catalytic domain (Fig 4G) or full-length (Fig 4H) (protein, UniProt O96013 1-591, looked up, variant M482K)
Serine/threonine-protein …: B1 Serine/threonine-protein … with A444D, M482K
modifications: GFP tag
B5: D444R: GFP-tagged PAK4 D444R mutant; catalytic domain (Fig 4G) or full-length (Fig 4H) (protein, UniProt O96013 1-591, looked up, variant D444R)
Serine/threonine-protein …: B1 Serine/threonine-protein … with A444R
modifications: GFP tag; catalytic domain or full-length
B6: Q358A: GFP-tagged PAK4 Q358A mutant; catalytic domain (Fig 4G) or full-length (Fig 4H) (protein, UniProt O96013 1-591, looked up, variant Q358A)
Serine/threonine-protein …: B1 Serine/threonine-protein … with Q358A, A444D
modifications: GFP tag

How the values were obtained:
[1] = test system: integrin β5 tail; assay: Pull-down of wild-type and mutated GFP-PAK4 catalytic domain by wild-type integrin β5 tail; assay type: binding; conditions: for Effect of PAK4 mutation on pull-down by integrin β5: catalytic domain (Fig. 4g) and full-length PAK4 (Fig. 4h)
Experimental: (§1) Pull down assays were performed as previously described[45],[60]. Briefly, constructs encoding an N-terminal His-tag followed by a helical region, a 4-glycine spacer, and an integrin cytoplasmic tail sequence were produced in BL21 (DE3) bacteria. Following bacterial cell lysis, recombinant protein was bound to Ni-NTA beads, eluted with imidazole, dialyzed and further purified by reverse-phase high-performance liquid chromatography (HPLC). Purified protein was lyophilized for storage and was used to coat fresh Ni-NTA beads to generate an affinity matrix for pull-down assays.
(§2) For pulldowns from cell lysates, human PAK4 constructs were generated in pEGFP (Takara Bio Inc.) by PCR amplification from a pLX304 PAK4 isoform 1 (Uniprot O96013-1) construct kindly provided by Michael Calderwood (Dana-Farber Cancer Institute). Mutations and deletions were introduced by QuikChange mutagenesis or PCR amplification. Chinese hamster ovary (CHO) cells were seeded on 10 cm tissue culture dishes and transiently transfected with GFP-tagged constructs using polyethylenimine (Polysciences). After 24 h, cells were harvested and lysed in buffer X (1 mM NaVO4, 50 mM NaF, 40 mM sodium pyrophosphate, 50 mM NaCl, 150 mM sucrose, 10 mM Pipes, pH 6.8) containing 0.5% Triton X-100, 0.2% deoxycholic acid, and complete EDTA-free protease inhibitor mixture (Roche, Indianapolis, IN, USA) for 15 min at 4 °C. After clarification by centrifugation, lysate was diluted in buffer X-T (buffer X with 0.05% Triton X-100) and incubated with His-tagged integrin tails coupled to Ni-NTA beads for 4 h with rocking at 4 °C. For experiments using purified PAK4cat, protein was incubated with His-tagged integrin tails coupled to Ni-NTA beads in buffer X-T for 2 h with rocking at 4 °C. Beads were then washed three times with buffer X-T, and bound proteins were fractionated by reducing SDS-PAGE and analyzed by immunoblotting with anti-GFP antibodies (600-101-215, Rockland). Immunoblots were imaged on an Odyssey IR imaging system (Li-Cor; Lincoln, NE, USA) and analyzed using Image Studio Lite (Li-Cor; Lincoln, NE, USA). For the quantification of binding from immunoblots, the fluorescence intensity of the band corresponding to bound material was quantified as a fraction of the fluorescence of the input material band for each condition. Loading of integrin tails was assessed by Coomassie Blue staining. Data were analyzed using GraphPad Prism.

[2] = test system: integrin β5 tail; assay: Pull-down of wild-type and mutated full-length GFP-PAK4 by wild-type integrin β5 tail; assay type: binding
Experimental: as §1, §2

[3] = Figure 4G source data, PAK4 catalytic domain, replicate 1
[4] = Figure 4H source data, full-length PAK4, experiment row r4

Molecule | Binding to wild-type integrin β5 tail, normalized to cat-WT [1, 3] | Binding to wild-type integrin β5 tail, normalized to cat-WT ([1]; Figure 4G, replicate 2) | Binding to wild-type integrin β5 tail, normalized to cat-WT ([1]; Figure 4G, replicate 3) | Binding to wild-type integrin β5 tail, normalized to cat-WT ([1]; Figure 4G, replicate 4) | Binding to wild-type integrin β5 tail, normalized to cat-WT ([1]; Figure 4G, replicate 5) | Binding to wild-type integrin β5 tail, normalized to cat-WT ([1]; Figure 4G, replicate 6) | Binding to wild-type integrin β5 tail, normalized to cat-WT ([1]; Figure 4G, replicate 7) | Effect of PAK4 mutation on pull-down by integrin β5 [1] | Binding to wild-type integrin β5 tail, normalized to FL-WT [2, 4] | Binding to wild-type integrin β5 tail, normalized to FL-WT ([2]; Figure 4H, experiment row r5) | Binding to wild-type integrin β5 tail, normalized to FL-WT ([2]; Figure 4H, experiment row r14) | Binding to wild-type integrin β5 tail, normalized to FL-WT ([2]; Figure 4H, experiment row r15) | Binding to wild-type integrin β5 tail, normalized to FL-WT ([2]; Figure 4H, experiment row r6) | Binding to wild-type integrin β5 tail, normalized to FL-WT ([2]; Figure 4H, experiment row r7) | Binding to wild-type integrin β5 tail, normalized to FL-WT ([2]; Figure 4H, experiment row r8) | Binding to wild-type integrin β5 tail, normalized to FL-WT ([2]; Figure 4H, experiment row r9) | Binding to wild-type integrin β5 tail, normalized to FL-WT ([2]; Figure 4H, experiment row r17) | Binding to wild-type integrin β5 tail, normalized to FL-WT ([2]; Figure 4H, experiment row r19) | Binding to wild-type integrin β5 tail, normalized to FL-WT ([2]; Figure 4H, experiment row r10) | further results
B1 | 0.04069 | 0.001166 | 0.2433 | 0.09577 | 3.582e-6 | 0.09749 | 0.0832 | strong inhibition | 0.235 | 0.008 | 0.233 | 0.015 | – | – | – | – | – | – | – | –
B2 | 0.1343 | 0.09959 | 0.2543 | 0.09217 | 0.08446 | 0.3379 | – | strong inhibition | – | 0.472 | – | – | 0.89 | 0.486 | 0.106 | 0.64 | – | – | – | –
B3 | 0.4077 | 0.4295 | 0.5407 | 0.2568 | 0.7435 | 0.2789 | 0.1085 | – | – | 0.029 | – | – | 0.62 | 0.561 | 0.262 | 0.4 | 0.03 | 0.1 | – | –
B4 | 0.517 | 0.2755 | 0.5038 | 0.2427 | 0.2915 | 0.007133 | – | moderate effect | 0.259 | 1.377 | – | – | 0.432 | 0.512 | 0.381 | – | 0.149 | 0.8 | 1.044 | Binding to wild-type integrin β5 tail, normalized to FL-WT ([2]; Figure 4H, experiment row r11): 0.278
B5 | 0.1667 | 0.1098 | 2.475e-5 | 0.334 | 0.004908 | 0.1746 | 0.115 | – | 0.011 | – | 0.329 | 0.208 | – | 0.517 | – | – | – | – | – | Binding to wild-type integrin β5 tail, normalized to FL-WT ([2]; Figure 4H, experiment row r13): 0.253
B6 | 0.8373 | 0.4614 | 0.71 | 1.075 | 0.4677 | 1.0032 | 1.283 | no effect on binding | 0.221 | 0.9415 | – | – | – | – | 0.58 | – | 1.265 | 1.25 | 3.01 | Binding to wild-type integrin β5 tail, normalized to cat-WT ([1]; Figure 4G, replicate 8): 1.183; Binding to wild-type integrin β5 tail, normalized to cat-WT ([1]; Figure 4G, replicate 9): 0.828; Binding to wild-type integrin β5 tail, normalized to FL-WT ([2]; Figure 4H, experiment row r18): 0.66
